Target: Gal4-DBD/CREM (UniProt P04386)
Test: cell-based or functional assay

ACT/Gal4-AD (from UniProt Q9WTX7 1-284)
activity in yeast (β-galactosidase reporter), compared with ACT (fold (against ACT)): 2

Source: US6660841
